Experimental data published in patent US6861508B2, “Transcriptional intermediary factor-2” (Institut National de la Sante et de la Recherche Medicale, priority 1996, dated 2005).
Blank lines part the entries; values can stand above or below the molecule they belong to.

Legend:
[1] = test system: GAL4 reporter; assay: GAL4 DBD-TIF2 fusion CAT reporter transactivation assay; assay type: cell-based; conditions: for transcriptional activation of GAL4 reporter by GAL4 DBD fusion: Cos-1 and/or HeLa cells
Experimental: (a) HeLa cells were cotransfected with 1 μg (17m)5-βG-CAT and 10 μg GAL(1-147) or 1,3 and 10 μg GAL(1-147)-TIF2.1, respectively.
(c) Analysis of the transcriptional activity of GAL-TIF2 fusion proteins. Cos-1 and HeLa cells were transfected with 3 lag of plasmids expressing different regions of TIF2 fised to the DNA-binding domain of the yeast transcription factor GALA together with 1 μg of the (7m)5-G-CAT reporterplasmid. CAT assays were performed as described (Bocquel, M. T. et al., Nucl Acids Res. 17:2581-2595 (1989)). Quantitative data on CAT reporter expression were obtained either by phosphoimager analysis (BAS2000, Fuji) of ^14C-labeled CAT reaction products separated by thin-layer chromatography, or using the CAT ELISA Kit (Boehringer Mannheim). In all cases, CAT activities were normalized to the β-galactosidase concentrations resulting from cotransfection of 1 μg of pCMVPGal (gift from T. Lerouge) as internal control. Fold inductions above the GAL4 DBD value are indicated. The mean and standard deviation of at least three experiments are shown. A representative Western blot, illustrating the expression levels of the GAL4-TIF2 fusion proteins, expressed from 10 μg of the corresponding expression vectors, is shown on the left.
(b) Transcriptional activation of TIF2 AF-1 mutants. Cos-1 and HeLa cells were cotransfected with 3 μg of plasmids expressing different mutants of the TIF2 AF-1 fused to the DNA-binding domain of the yeast transcription factor GAL4 together with 1 μg of the (17m)5-G-CAT reporter plasmid. Fold inductions above the activation seen with the GAL4 DBD alone are indicated. The values represent the mean of at least three experiments.
(a) Transcriptional activation by TIF2.13 and TIF2.13 mutants. Cos-1 and HeLa cells were cotransfected with 3 μg of plasmids expressing the TIF2.13 region and the indicated TIF2.13 mutants fused to the DNA-binding domain of the yeast transcription factor GALA together with 1 μg of the (17m)5-G-CAT reporter plasmid. Fold inductions above the GAL4 DBD 1-fold value are indicated. The mean and standard deviation obtained from at least four experiments are shown. The expression levels of the GAL4-TIF2.13 fusion proteins were confirmed by western blotting (data not shown).
Transient transfections of HeLa and Cos-1 cells were performed as described (Gronemeyer et al., (1987); Bocquel, M. T. et al., Nucl. Acids Res. 17:2581-2595 (1989)).

[2] = test system: GAL-CBP; assay: two hybrid analysis of CBP-TIF2 interaction in HeLa cells; assay type: cell-based
Experimental: (e) Two hybrid analysis of the CBP-TIF2 interaction in mammalian cells in vivo. HeLa cells were transfected with 0.2 μg of the GAL4 or GALA-CBP (expressing CBP residues 1872 to 2165) expression vectors together with 0.2 μg of the VP16 or VPI6-TF2 expression vectors in the presence of 2 μg of (17m)5-TATA-CAT reporter plasmid. Fold induction relative to the GAL-CBP activity is indicated. The mean of three experiments is shown; in each case, values varied by less than ±20%.
HeLa cells were transfected with 0.2 μg of GAL4 or GAL-CBP expression vectors together with 0.2 μg of VP16 or VP16-TIF2.13 expression vectors in the presence of 1 μg of (17m)5-TATA-CAT reporter plasmid. Data are represented as fold induction of the activity seen with GAL-CBP alone. The mean and standard, deviation obtained from ten experiments are shown. The expression levels were confirmed by Western blotting with antibodies directed against GAL4 DBD and VP16 AAD (data not shown).
Furthermore, it was reported that SRC-1, which belongs to the same gene family as TIF2, interacts with CBP and p300 (Kamei, Y. et al., Cell 85:403-414 (1996); Yao, T. P. et al., Proc. Natl. Acad. Sci. USA 93:10626-10631 (1996); Hanstein, B., et al., Proc. Natl. Acad Sci USA 93:11540-11545 (1996)). Using GST-fusion protein-based interaction and animal cell-based two hybrid assays, we therefore analyzed whether TIF2 could also interact with CBP. […] A GST-CBP fusion protein was expressed in E. coli and used for puU-down assays with in vitro translated TIF2 polypeptides (FIG. 7d).

[3] = biological target: T1, (His)6-TIF2.1, E. coli-expressed purified recombinant TIF2.1 (human, UniProt Q15596 624-1287); assay: GST interaction assay (not shown)
T1 construct: also called His-tagged TIF2.1; purified TIF2.1 protein; not shown: (His)6 tag of pET15b
T1 sequence: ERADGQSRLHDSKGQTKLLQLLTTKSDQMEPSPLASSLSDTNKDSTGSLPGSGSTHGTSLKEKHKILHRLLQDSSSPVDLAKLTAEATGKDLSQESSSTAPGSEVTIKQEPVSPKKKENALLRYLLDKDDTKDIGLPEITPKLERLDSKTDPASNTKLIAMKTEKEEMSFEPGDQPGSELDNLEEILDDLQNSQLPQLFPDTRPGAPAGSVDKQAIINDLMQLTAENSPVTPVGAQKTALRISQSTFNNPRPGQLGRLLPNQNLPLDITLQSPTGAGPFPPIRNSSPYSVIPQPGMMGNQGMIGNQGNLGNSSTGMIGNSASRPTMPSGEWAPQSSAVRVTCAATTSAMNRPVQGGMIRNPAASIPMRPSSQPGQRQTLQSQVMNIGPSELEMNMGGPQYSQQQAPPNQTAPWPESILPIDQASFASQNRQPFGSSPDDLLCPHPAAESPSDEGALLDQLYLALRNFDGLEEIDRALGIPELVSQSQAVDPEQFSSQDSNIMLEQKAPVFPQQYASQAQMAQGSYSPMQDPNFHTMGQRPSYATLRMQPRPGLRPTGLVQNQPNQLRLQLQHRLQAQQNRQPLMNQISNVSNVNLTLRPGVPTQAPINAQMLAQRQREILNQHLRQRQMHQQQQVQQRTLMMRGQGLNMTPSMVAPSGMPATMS

[4] = biological target: T2, GST-hRARα(DEF) (pGEX2T-hRARα(DEF), amino acids 153-462) (human, UniProt P10276 153-462); assay: GST pull-down with 35S in-vitro-translated TIF2 polypeptides (FIG. 7a-b)
T2 construct: range 153-462; Bacterially produced; also called GST-RAR; GST-RARα(DEF); not shown: glutathione-S-transferase (GST) of pGEX2T (Pharmacia)
T2 sequence (looked up): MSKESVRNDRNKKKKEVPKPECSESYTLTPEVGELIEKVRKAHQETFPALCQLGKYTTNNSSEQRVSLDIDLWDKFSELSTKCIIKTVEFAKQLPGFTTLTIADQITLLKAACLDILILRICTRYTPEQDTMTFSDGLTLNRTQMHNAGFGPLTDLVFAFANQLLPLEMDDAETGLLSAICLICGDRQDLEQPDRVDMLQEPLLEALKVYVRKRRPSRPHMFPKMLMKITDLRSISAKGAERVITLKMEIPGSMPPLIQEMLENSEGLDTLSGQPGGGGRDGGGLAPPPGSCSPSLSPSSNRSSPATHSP

[5] = biological target: T3, GST-hERα(DEF) (pGEX2T-hERα(DEF), amino acids 282-595) (human, UniProt P03372 282-595); assay: as above
T3 construct: range 282-595; Bacterially produced; also used 32P-labelled as Far-Western probe; also called GST-ER; GST-ER(DEF); not shown: glutathione-S-transferase (GST) of pGEX2T (Pharmacia)
T3 sequence (looked up): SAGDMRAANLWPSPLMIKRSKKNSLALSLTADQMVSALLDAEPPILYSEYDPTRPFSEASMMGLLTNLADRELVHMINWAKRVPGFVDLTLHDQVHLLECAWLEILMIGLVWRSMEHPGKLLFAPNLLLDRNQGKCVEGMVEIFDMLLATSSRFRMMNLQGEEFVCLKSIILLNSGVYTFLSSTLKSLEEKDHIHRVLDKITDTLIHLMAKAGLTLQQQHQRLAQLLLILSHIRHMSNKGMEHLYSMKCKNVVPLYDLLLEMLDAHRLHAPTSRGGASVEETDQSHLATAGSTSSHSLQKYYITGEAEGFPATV

[6] = test system: ER, RARα and RXRα LBDs; assay: GST pull-down of TIF2 polypeptides with NR LBDs; assay type: binding; conditions: in vitro, with or without 10^−6 M ligand
Experimental: (b) Mapping of the nuclear receptor-interacting domain of TIF2.
(c-d) Interaction of TIF2 NID mutants with NRs in vitro. […] For quantification of point mutant interactions, see below.
(e-f) Effect of TIF2 NID point mutations on stimulation of NR AF-2 activity. Cos-1 cells were cotransfected with 1 μg of the (17m)5-TATA-CAT reporter, 0.2 μg of GAL-hERα(EF) or GAL-mRXRα(DE), and 2.5 μg of the TIF2.1 wildtype or mutated fragments, as indicated. […] Each bar represents the mean value obtained from at least three (interaction) or at least four (transactivation) experiments, respectively; standard deviations are indicated. Note that the absolute values for TIF2.1 wildtype activity varied by ±16% when cotransfected with GAL-hERα(EF) and by ±34% when cotransfected with GAL-mRXRα(DE). In the in-vitro-interaction assays, the affinity of the TIF2.1 wildtype standard varied by less than ±25%. Expression levels of TIF2 mutants in the cells were verified by Western blot (not shown) with mouse monoclonal antibody 3Ti3F1, which is directed against an epitope outside the mutated area.
To further delineate the TIF2 NR interaction domain (NID), we studied the interaction between a series of TIF2 deletion mutants and the ER or RARα LBDs, using GST-fusion protein-based in vitro assays. In both cases, an NWD was mapped to the central region of TIF2 (amino acids 624-869 in mutant TIF2.5; see FIGS. 7a and b). No additional NWD could be identified in the N- or C-termini of TIF2 (FIGS. 7a and b; mutants TIF2.0, TIF2.2 and TIF2.7). Note that, in contrast, SRC-1, a paralogue of TIF2, apparently harbours two distinct non-contiguous NIDs located in the central and C-terminal regions (Onate, S. A. et al., Science 270:1354-1357 (1995), Yao, T. P. et al., Proc. Natl. Acad. Sci. USA 93:10626-10631 (1996); Zhu, Y. et al., Gene Epression 6:185-195 (1996)).

B1: TIF2.13: TIF2 fragment Pro1011 to Ser1122 (protein, UniProt Q15596 1011-1122, looked up, fragment)
chain: PSELEMNMGGPQYSQQQAPPNQTAPWPESILPIDQASFASQNRQPFGSSPDDLLCPHPAAESPSDEGALLDQLYLALRNFDGLEEIDRALGIPELVSQSQAVDPEQFSSQDS
transcriptional activation of GAL4 reporter by GAL4 DBD fusion [1]: potent transcriptional activity | interaction with GAL-CBP, two hybrid [2]: also interacted with CBP in vivo

B2: GST-hTAFII55 (printed hTAFn55) (other, human, UniProt Q15545 1-349, looked up)
chain: MSKSKDDAPHELESQFILRLPPEYASTVRRAVQSGHVNLKDRLTIELHPDGRHGIVRVDRVPLASKLVDLPCVMESLKTIDKKTFYKTADICQMLVSTVDGDLYPPVEEPVASTDPKASKKKDKDKEKKFIWNHGITLPLKNVRKRRFRKTAKKKYIESPDVEKEVKRLLSTDAEAVSTRWEIIAEDETKEAENQGLDISSPGMSGHRQGHDSLEHDELREIFNDLSSSSEDEDETQHQDEEDINIIDTEEDLERQLQDKLNESDEQHQENEGTNQLVMGIQKQIDNMKGKLQETQDRAKRQEDLIMKVENLALKNRFQAVLDELKQKEDREKEQLSSLQEELESLLEK
notes: not shown: glutathione-S-transferase (GST)
binding result [3]: no binding

B3: TIF2.8 (TIF2 amino acids 1010-1179) (other)
chain: GPSELEMNMGGPQYSQQQAPPNQTAPWPESILPIDQASFASQNRQPFGSSPDDLLCPHPAAESPSDEGALLDQLYLALRNFDGLEEIDRALGIPELVSQSQAVDPEQFSSQDSNIMLEQKAPVFPQQYASQAQMAQGSYSPMQDPNFHTMGQRPSYATLRMQPRPGLRPT
notes: In-vitro-translated; also called minimal AD1
binding result [4]: no binding | binding result [5]: no binding | transcriptional activation of GAL4 reporter by GAL4 DBD fusion [1]: able to activate transcription | increased transactivation relative to parent fragment ([1]; Cos-1 cells): 2 fold | increased transactivation relative to parent fragment ([1]; HeLa cells): 10 fold | binding to NRs (ER, RARα LBDs) [6]: cannot bind NRs

The remaining lines, values ahead:

binding result [4]: no binding | binding result [5]: no binding
B4: TIF2.12 (TIF2 amino acids 940-1131) (other)
chain: IGNSASRPTMPSGEWAPQSSAVRVTCAATTSAMNRPVQGGMIRNPAASIPMRPSSQPGQRQTLQSQVMNIGPSELEMNMGGPQYSQQQAPPNQTAPWPESILPIDQASFASQNRQPFGSSPDDLLCPHPAAESPSDEGALLDQLYLALRNFDGLEEIDRALGIPELVSQSQAVDPEQFSSQDSNIMLEQKAP
notes: In-vitro-translated

binding result [3]: no binding
B5: GST-hTAFII20 (printed hTAFn20) (other, human, UniProt Q16514 1-161, looked up)
chain: MNQFGPSALINLSNFSSIKPEPASTPPQGSMANSTAVVKIPGTPGAGGRLSPENNQVLTKKKLQDLVREVDPNEQLDEDVEEMLLQIADDFIESVVTAACQLARHRKSSTLEVKDVQLHLERQWNMWIPGFGSEEIRPYKKACTTEAHKQRMALIRKTTKK
notes: as for B2
